The values that follow come from patent publication US20150246971A1 (RESEARCH DEVELOPMENT FOUNDATION, published 2015).

Assay [1] deals with T1, soluble human JAM-C-FLAG protein (human, UniProt Q9BX67 32-237).
T1 construct: Amine-coupled to a Biacore CM5 chip; also called immobilized JAM-C; human soluble JAM-C FLAG protein
T1 sequence: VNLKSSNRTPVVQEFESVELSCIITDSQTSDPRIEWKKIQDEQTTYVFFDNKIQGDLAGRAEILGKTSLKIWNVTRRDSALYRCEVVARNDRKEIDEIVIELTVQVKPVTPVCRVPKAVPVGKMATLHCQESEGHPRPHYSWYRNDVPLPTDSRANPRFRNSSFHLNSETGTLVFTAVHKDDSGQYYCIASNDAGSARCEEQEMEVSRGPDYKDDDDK
Nature of the assay: SPR (Biacore 2000), JAM-C FLAG on a CM5 chip, response at the end of injection. As to the method:
(§1) To confirm the specificity of the JAM-C/JAM-B interaction at the molecular level, soluble human JAM-C-FLAG protein was covalently immobilized to a Biacore CM5 sensor chip Immobilization was assessed by testing the binding of anti-JAM-C monoclonal and polyclonal antibodies. […] Homotypic JAM-C/JAM-C interaction was never observed under these conditions, even when injecting higher concentrations of JAM-C Fc. […] To validate these findings for the model of human cells injected into mice, the inventors subsequently confirmed that human JAM-C binds to murine JAM-B to the same extent as to human JAM-B (FIG. 6B).
(§2) Interaction studies were performed on a Biacore 2000 (GE Healthcare). Recombinant proteins were immobilized at a concentration of 5 μg/mL on a CM5 sensor chip using the amine coupling kit (NHS-EDC) provided by the Biacore supplier. Background signal from a reference channel without soluble JAM-C was automatically subtracted. Proteins (30 μL) were injected (Kinject) in running buffer (400 μM Tris-HCl pH 7.4, containing 145 mM NaCl) at a flow rate of 20 μL/min.

The target in assay [2] is T2, human JAM-C (full-length, on cells) (human, UniProt Q9BX67 32-310).
T2 construct: whole, on cells; also called HuJAM-C; junctional adhesion molecule C
T2 sequence (looked up): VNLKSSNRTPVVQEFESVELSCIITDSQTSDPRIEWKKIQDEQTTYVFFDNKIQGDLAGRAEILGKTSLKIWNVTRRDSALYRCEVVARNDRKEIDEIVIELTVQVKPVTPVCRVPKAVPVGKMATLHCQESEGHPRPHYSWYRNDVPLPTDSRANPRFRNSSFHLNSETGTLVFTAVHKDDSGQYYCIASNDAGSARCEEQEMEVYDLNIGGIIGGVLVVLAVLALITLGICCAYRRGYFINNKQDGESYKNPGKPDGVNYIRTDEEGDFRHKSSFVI
The experiment in a line: adhesion of CFSE-labelled JAM-C-transfected Raji cells to coated Fc protein (human and murine JAM-B Fc coated). As to the method: (§3) Although homotypic JAM-C/JAM-C and heterotypic JAM-C/JAM-B interactions have been reported, the endothelial ligand for JAM-C on B cells had not been described. To investigate this interaction, adhesion assays were performed. Culture plates were coated with recombinant human and murine JAM-B Fc, human JAM-C Fc, human VCAM-1 Fc as a positive control, and JAM-A Fc as a negative control. The JAM-Cneg B cell line Raji was transfected with the full-length human JAM-C cDNA and mock-transfected cells were used as a control (FIG. 5A). Whereas mock-transfected Raji cells adhered only to VCAM-1, JAM-C transfected Raji cells adhered to JAM-B and VCAM-1, but adhered neither to JAM-C nor to JAM-A (FIG. 5B-C). […]
(§4) For cell adhesion assays, NUNC 269787 adhesion plates were successively coated with anti-huFc antibody (Jackson Immuno Research) at 2.5 μg/mL, Fc-labeled proteins at 2.5 μg/mL, and blocked with 1% BSA (purified fraction V, Sigma). […] One hundred microliters of lysed cells were transferred into a 96-well plate (micro-clear plates black, Greiner), and fluorescence (πex 485 nm; πem 538 nm) was measured with a Flex Station Microplate reader (Molecular Devices). Data were expressed either in arbitrary units or as the ratio of the fluorescence measured on JAM-B Fc coated wells to the fluorescence measured on wells coated with Fc control protein.

Assay [3] addresses T1, soluble human JAM-C-FLAG protein. The experiment in a line: SPR (Biacore 2000), JAM-C FLAG on a CM5 chip. As to the method:
as §1, §2
A general note: Surface plasmon resonance follows binding to a sensor surface in real time, without labels.

The target in assay [4] is T2, human JAM-C (full-length, on cells). Nature of the assay: adhesion of CFSE-labelled JAM-C-transfected Raji cells to coated Fc protein. As for the experimental part: as §3, §4

B1: murine JAM-B FLAG (ligand, UniProt Q9JI59 29-236, looked up)
chain: FSASKDHRQEVTVIEFQEAILACKTPKKTTSSRLEWKKVGQGVSLVYYQQALQGDFKDRAEMIDFNIRIKNVTRSDAGEYRCEVSAPTEQGQNLQEDKVMLEVLVAPAVPACEVPTSVMTGSVVELRCQDKEGNPAPEYIWFKDGTSLLGNPKGGTHNNSSYTMNTKSGILQFNMISKMDSGEYYCEARNSVGHRRCPGKRMQVDVLN
notes: also called murine JAM-B FLAG protein; not shown: FLAG tag
On to B1, for which the binding result in assay [1] is “binds”.

B2: recombinant murine JAM-B Fc (Fc fusion, UniProt Q9JI59 29-236, looked up)
chain: B1 chain
notes: Coated on adhesion plates; also called mouse JAM-B; not shown: Fc tag (captured by anti-huFc antibody)
With B2, the binding result in assay [2] is recorded as “binds”.

B3: recombinant human JAM-B Fc (Fc fusion)
chain: FSAPKDQQVVTAVEYQEAILACKTPKKTVSSRLEWKKLGRSVSFVYYQQTLQGDFKNRAEMIDFNIRIKNVTRSDAGKYRCEVSAPSEQGQNLEEDTVTLEVLVAPAVPSCEVPSSALSGTVVELRCQDKEGNPAPEYTWFKDGIRLLENPRLGSQSTNSSYTMNTKTGTLQFNTVSKLDTGEYSCEARNSVGYRRCPGKRMQVDDLNIS
notes: Bought (R&D); also called soluble JAM-B Fc; soluble human JAM-B Fc; not shown: Fc tag (detected with anti-human IgG1 Fc)
As for B3, the binding result in assay [3] and in assay [4] was “binds” throughout.

B4: human JAM-B FLAG (ligand)
chain: B3 chain
notes: also called human JAM-B FLAG protein; not shown: FLAG tag
Turning to B4, in assay [3], the binding result is recorded as “binds”.
